Source: publication PMC3127752

Assays:
[1] = test system: T1, SO2426 (Shewanella oneidensis MR-1), ORF:71750797; experiment: EMSA; conditions: DIG-11-dUTP incorporated (dTTP:DIG-dUTP 1:6 mix), 0.5X EMSA buffer [5 mM Tris-Cl pH 8.0, 75 mM KCl, 0.05 mM DTT, 0.05 mM EDTA, 6% glycerol], 5 mM MgCl2, 20 mM acetyl phosphate, 0.2 ug/ul poly(dI:dC)
T1 sequence: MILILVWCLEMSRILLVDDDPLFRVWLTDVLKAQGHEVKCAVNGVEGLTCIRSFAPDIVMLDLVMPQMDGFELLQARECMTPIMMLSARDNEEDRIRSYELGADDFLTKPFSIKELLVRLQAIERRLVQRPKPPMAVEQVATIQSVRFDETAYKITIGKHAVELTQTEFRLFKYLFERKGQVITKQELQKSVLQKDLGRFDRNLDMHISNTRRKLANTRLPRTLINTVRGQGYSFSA

[2] = molecular target: T2, SO2426sh (Shewanella oneidensis MR-1) (UniProt Q8EEF6); experiment: EMSA; conditions: DIG-11-dUTP incorporated (dTTP:DIG-dUTP 1:6 mix), 0.5X EMSA buffer [5 mM Tris-Cl pH 8.0, 75 mM KCl, 0.05 mM DTT, 0.05 mM EDTA, 6% glycerol], 5 mM MgCl2, 20 mM acetyl phosphate, 0.2 ug/ul poly(dI:dC)
T2 sequence: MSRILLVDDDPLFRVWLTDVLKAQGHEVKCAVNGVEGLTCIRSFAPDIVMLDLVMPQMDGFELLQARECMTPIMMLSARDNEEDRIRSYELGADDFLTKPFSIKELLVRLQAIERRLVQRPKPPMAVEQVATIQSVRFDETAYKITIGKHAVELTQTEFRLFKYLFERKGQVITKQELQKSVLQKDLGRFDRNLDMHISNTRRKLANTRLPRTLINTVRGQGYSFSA

Q: With “TTCGTCGTTGTAGTGAACCTGTAACAGCAAATCAGACGGAAAAATTTCTATTTAGCAACACAATGGAATGACTTACACGGCA (double strand) [so3030 upstream 83-bp probe]” as the sequence, how does the binding [1] read?
A: binds

Q: What about the binding [2] of the same sequence?
A: binds
